Measurements: patent US12371675B2, “Process and microorganism for synthesis of adipic acid from carboxylic acids” (THE GOVERNING COUNCIL OF THE UNIVERSITY OF TORONTO, priority 2015, dated 2025)
Where “and” joins values, the source holds several entries; their conditions need not be identical. Equal entries are not always repeated.

B1: MSMEG_2956: carboxylate reductase (CAR) from M. smegmatis ATCC 700084 (protein)
chain: MTIETREDRFNRRIDHLFETDPQFAAARPDEAISAAAADPELRLPAAVKQILAGYADRPALGKRAVEFVTDEEGRTTAKLLPRFDTITYRQLAGRIQAVTNAWHNHPVNAGDRVAILGFTSVDYTTIDIALLELGAVSVPLQTSAPVAQLQPIVAETEPKVIASSVDFLADAVALVESGPAPSRLVVFDYSHEVDDQREAFEAAKGKLAGTGVVVETITDALDRGRSLADAPLYVPDEADPLTLLIYTSGSTGTPKGAMYPESKTATMWQAGSKARWDETLGVMPSITLNFMPMSHVMGRGILCSTLASGGTAYFAARSDLSTFLEDLALVRPTQLNFVPRIWDMLFQEYQSRLDNRRAEGSEDRAEAAVLEEVRTQLLGGRFVSALTGSAPISAEMKSWVEDLLDMHLLEGYGSTEAGAVFIDGQIQRPPVIDYKLVDVPDLGYFATDRPYPRGELLVKSEQMFPGYYKRPEITAEMFDEDGYYRTGDIVAELGPDHLEYLDRRNNVLKLSQGEFVTVSKLEAVFGDSPLVRQIYVYGNSARSYLLAVVVPTEEALSRWDGDELKSRISDSLQDAARAAGLQSYEIPRDFLVETTPFTLENGLLTGIRKLARPKLKAHYGERLEQLYTDLAEGQANELRELRRNGADRPVVETVSRAAVALLGASVTDLRSDAHFTDLGGDSLSALSFSNLLHEIFDVDVPVGVIVSPATDLAGVAAYIEGELRGSKRPTYASVHGRDATEVRARDLALGKFIDAKTLSAAPGLPRSGTEIRTVLLTGATGFLGRYLALEWLERMDLVDGKVICLVRARSDDEARARLDATFDTGDATLLEHYRALAADHLEVIAGDKGEADLGLDHDTWQRLADTVDLIVDPAALVNHVLPYSQMFGPNALGTAELIRIALTTTIKPYVYVSTIGVGQGISPEAFVEDADIREISATRRVDDSYANGYGNSKWAGEVLLREAHDWCGLPVSVFRCDMILADTTYSGQLNLPDMFTRLMLSLVATGIAPGSFYELDADGNRQRAHYDGLPVEFIAEAISTIGSQVTDGFETFHVMNPYDDGIGLDEYVDWLIEAGYPVHRVDDYATWLSRFETALRALPERQRQASLLPLLHNYQQPSPPVCGAMAPTDRFRAAVQDAKIGPDKDIPHVTADVIVKYISNLQMLGLL
B2: MSMEG_5739: carboxylate reductase (CAR) from M. smegmatis ATCC 700084 (protein)
chain: MTSDVHDATDGVTETALDDEQSTRRIAELYATDPEFAAAAPLPAVVDAAHKPGLRLAEILQTLFTGYGDRPALGYRARELATDEGGRTVTRLLPRFDTLTYAQVWSRVQAVAAALRHNFAQPIYPGDAVATIGFASPDYLTLDLVCAYLGLVSVPLQHNAPVSRLAPILAEVEPRILTVSAEYLDLAVESVRDVNSVSQLVVFDHHPEVDDHRDALARAREQLAGKGIAVTTLDAIADEGAGLPAEPIYTADHDQRLAMILYTSGSTGAPKGAMYTEAMVARLWTMSFITGDPTPVINVNFMPLNHLGGRIPISTAVQNGGTSYFVPESDMSTLFEDLALVRPTELGLVPRVADMLYQHHLATVDRLVTQGADELTAEKQAGAELREQVLGGRVITGFVSTAPLAAEMRAFLDITLGAHIVDGYGLTETGAVTRDGVIVRPPVIDYKLIDVPELGYFSTDKPYPRGELLVRSQTLTPGYYKRPEVTASVFDRDGYYHTGDVMAETAPDHLVYVDRRNNVLKLAQGEFVAVANLEAVFSGAALVRQIFVYGNSERSFLLAVVVPTPEALEQYDPAALKAALADSLQRTARDAELQSYEVPADFIVETEPFSAANGLLSGVGKLLRPNLKDRYGQRLEQMYADIAATQANQLRELRRAAATQPVIDTLTQAAATILGTGSEVASDAHFTDLGGDSLSALTLSNLLSDFFGFEVPVGTIVNPATNLAQLAQHIEAQRTAGDRRPSFTTVHGADATEIRASELTLDKFIDAETLRAAPGLPKVTTEPRTVLLSGANGWLGRFLTLQWLERLAPVGGTLITIVRGRDDAAARARLTQAYDTDPELSRRFAELADRHLRVVAGDIGDPNLGLTPEIWHRLAAEVDLVVHPAALVNHVLPYRQLFGPNVVGTAEVIKLALTERIKPVTYLSTVSVAMGIPDFEEDGDIRTVSPVRPLDGGYANGYGNSKWAGEVLLREAHDLCGLPVATFRSDMILAHPRYRGQVNVPDMFTRLLLSLLITGVAPRSFYIGDGERPRAHYPGLTVDFVAEAVTTLGAQQREGYVSYDVMNPHDDGISLDVFVDWLIRAGHPIDRVDDYDDWVRRFETALTALPEKRRAQTVLPLLHAFRAPQAPLRGAPEPTEVFHAAVRTAKVGPGDIPHLDEALIDKYIRDLREFGLI
B3: MAP_1040c: carboxylate reductase (CAR) from M. paratuberculosis ATCC BAA-968 (protein)
chain: MSTATHDERLDRRVHELIATDPQFAAAQPDPAITAALEQPGLRLPQIIRTVLDGYADRPALGQRVVEFVTDAKTGRTSAQLLPRFETITYSEVAQRVSALGRALSDDAVHPGDRVCVLGFNSVDYATIDMALGAIGAVSVPLQTSAAISSLQPIVAETEPTLIASSVNQLSDAVQLITGAEQAPTRLVVFDYHPQVDDQREAVQDAAARLSSTGVAVQTLAELLERGKDLPAVAEPPADEDSLALLIYTSGSTGAPKGAMYPQSNVGKMWRRGSKNWFGESAASITLNFMPMSHVMGRSILYGTLGNGGTAYFAARSDLSTLLEDLELVRPTELNFVPRIWETLYGEFQRQVERRLSEAGDAGERRAVEAEVLAEQRQYLLGGRFTFAMTGSAPISPELRNWVESLLEMHLMDGYGSTEAGMVLFDGEIQRPPVIDYKLVDVPDLGYFSTDRPHPRGELLLRTENMFPGYYKRAETTAGVFDEDGYYRTGDVFAEIAPDRLVYVDRRNNVLKLAQGEFVTLAKLEAVFGNSPLIRQIYVYGNSAQPYLLAVVVPTEEALASGDPETLKPKIADSLQQVAKEAGLQSYEVPRDFIIETTPFSLENGLLTGIRKLAWPKLKQHYGERLEQMYADLAAGQANELAELRRNGAQAPVLQTVSRAAGAMLGSAASDLSPDAHFTDLGGDSLSALTFGNLLREIFDVDVPVGVIVSPANDLAAIASYIEAERQGSKRPTFASVHGRDATVVRAADLTLDKFLDAETLAAAPNLPKPATEVRTVLLTGATGFLGRYLALEWLERMDMVDGKVIALVRARSDEEARARLDKTFDSGDPKLLAHYQQLAADHLEVIAGDKGEANLGLGQDVWQRLADTVDVIVDPAALVNHVLPYSELFGPNALGTAELIRLALTSKQKPYTYVSTIGVGDQIEPGKFVENADIRQMSATRAINDSYANGYGNSKWAGEVLLREAHDLCGLPVAVFRCDMILADTTYAGQLNLPDMFTRLMLSLVATGIAPGSFYELDADGNRQRAHYDGLPVEFIAAAISTLGSQITDSDTGFQTYHVMNPYDDGVGLDEYVDWLVDAGYSIERIADYSEWLRRFETSLRALPDRQRQYSLLPLLHNYRTPEKPINGSIAPTDVFRAAVQEAKIGPDKDIPHVSPPVIVKYITDLQLLGLL

Tests used:
[1] = In vitro biotransformation by CARs coupled with aldehyde reductase PP_3370; type: biochemical; settings: Table 12 title: 10 mM adipic acid (12 h) in vitro, CARs coupled with PP3370
[2] = as above; type: biochemical; settings: Table 12 title: 10 mM 4-hydroxybutyric acid (12 h) in vitro, CARs coupled with PP3370
[3] = CAR reductase activity, NADPH oxidation at 340 nm; type: biochemical; settings: ND = no activity was detected
Experimental: Reductase activity was measured spectrophotometrically by following the oxidation of NADPH depletion at 340 nm.
It has been shown that the N. iowensis CAR has a broad substrate range, though its maximal activity was usually observed with aromatic substrates such as benzoic and cinnamic acids. CARs gene sequences homologues to the N. iowensis CAR (Uniprot number: Q6RKB1), were selected from GenBank database. Based on presence of adenylation (AMP-binding PF00501) and reduction (NAD-binding PF07993) domains accompanied with phosphopantetheinyl binding motif (PF00530) 13 CAR genes (mostly from Mycobacterium) were cloned and expressed in E. coli. (Table 4). As CAR activation enzymes, phosphopantetheinyl transferases (PPTs) from E. coli (P19925) and Bacillus subtilis (P39135), were used which were co-expressed with the selected CAR genes from a separate plasmid. Using 1-liter E. coli cultures with overnight induction by IPTG, 12 soluble CAR proteins were purified using affinity chromatography on a Ni-NTA resin.

[4] = In vivo whole cell biotransformation by E. coli expressing CARs; type: cell-based; settings: 24 h; for In vivo conversion efficiency (%) to: 1,4-butanediol: 10 mM 4-hydroxybutyric acid; for In vivo conversion efficiency (%) to: 1,6-hexanediol / In vivo conversion efficiency (%) to: 6-hydroxyhexanoic acid: 10 mM adipic acid
Experimental: E. coli cells expressing recombinant CARs with BSU03570 phosphopantetheinyl transferase were grown on LB media with […], supplemented with 2% glycerol aerobically on 37° C., until the culture optical density (OD 600 nm) reached 0.6-0.8. At this point protein expression was induced with 0.4 mM IPTG and substrate (adipic acid or 4-hydroxybutyric acid) for final 10 mM concentration was added. Samples were taken at 6 h, 24 h and 48 h, centrifuged, supernatant was filtered through 10 kDa centrifugal filters. Products were analyzed with HPLC or LC-MS. Negative control experiments were performed using E. coli cells harboring empty plasmids. All results of in vivo experiments are means from at least two independent determinations.

Molecule	In vitro conversion efficiency % to: 1,6-hexanediol [1] [%]	In vitro conversion efficiency % to: 6-hydroxyhexanoic acid [1] [%]	In vivo conversion efficiency (%) to: 1,4-butanediol [2] [%]	Activity [U/mg protein] adipic acid, 5 mM [3] [U/mg protein]	In vivo conversion efficiency (%) to: 1,4-butanediol [4] [%]	In vivo conversion efficiency (%) to: 1,6-hexanediol [4]	In vivo conversion efficiency (%) to: 6-hydroxyhexanoic acid [4]	Activity [U/mg protein] 4-hydroxybutyric acid, 5 mM [3] [U/mg protein]
B1	27.7 ± 10.3	34.2 ± 9.1	59.4 ± 7.3	0.078 ± 0.001	59.4 ± 7.3	27.7 ± 10.3%	34.2 ± 9.1%	
B2	57.2 ± 0.6	9.1 ± 0.7	86.1 ± 5.2	0.054 ± 0.004	86.1±5.2	53.8±1.4% and 57.2 ± 0.6%	9.1% and 9.1 ± 0.7%	0.032 ± 0.024
B3	15.4 ± 1.7	5.8 ± 0.2	81.6 ± 18.3	0.053 ± 0.006	81.6 ± 18.3	15.4 ± 1.7%	5.8 ± 0.2%	0.014 ± 0.006
